# In publication PMC4316792, “The dehydrogenase region of the NADPH oxidase component Nox2 acts as a protein disulfide isomerase (PDI) resembling PDIA3 with a role in the binding of the activator protein p67^phox” (Frontiers in Chemistry, 2015):
# Residue numbers refer to the chain shown, from its start. Entries after “also recorded” stand apart in the source; their conditions may differ. Bridges are numbered along the chain shown (N, C = ends). The star is where a group is joined. Biotin = O=C1N[C@H]2[C@H](CS[C@H]2CCCCC(=O)*)N1
# B1: Nox2 peptide 28 (369–383) with an intramolecular disulfide bond linking cysteines 369 and 371 (peptide)
# peptide: Biotin-SGSGCGCDKQEFQDAWKLP-NH2
# modifications: disulfide 5-7
# SMILES: CC(C)C[C@H](NC(=O)[C@H](CCCCN)NC(=O)[C@H](Cc1c[nH]c2ccccc12)NC(=O)[C@H](C)NC(=O)[C@H](CC(=O)O)NC(=O)[C@H](CCC(N)=O)NC(=O)[C@H](Cc1ccccc1)NC(=O)[C@H](CCC(=O)O)NC(=O)[C@H](CCC(N)=O)NC(=O)[C@H](CCCCN)NC(=O)[C@H](CC(=O)O)NC(=O)[C@@H]1CSSC[C@H](NC(=O)CNC(=O)[C@H](CO)NC(=O)CNC(=O)[C@H](CO)NC(=O)CCCC[C@@H]2SC[C@@H]3NC(=O)N[C@@H]32)C(=O)NCC(=O)N1)C(=O)N1CCC[C@H]1C(N)=O
# notes: spacer between the N-terminal biotin and the peptide, printed as Ser-Gly-Ser-Gly; also called peptide 28, disulfide form; source: synthetic peptide (Mimotopes or Bachem); not shown: biotin, N-terminal, kept
# B2: NusA-Nox2(357–570): fusion protein of NusA and Nox2 residues 357–570, contains the CGC triad (protein)
# chain: IVGDWTEGLFNACGCDKQEFQDAWKLPKIAVDGPFGTASEDVFSYEVVMLVGAGIGVTPFASILKSVWYKYCNNATNLKLKKIYFYWLCRDTHAFEWFADLLQLLESQMQERNNAGFLSYNIYLTGWDESQANHFAVHHDEEKDVITGLKQKTLYGRPNWDNEFKTIASQHPNTRIGVFLCGPEALAETLSKQSISNSESGPRGVHFIFNKENF
# modifications: left off: NusA (E. coli), N-terminal, kept | His tag (from the purification on Nickel Sepharose), end not stated, state not stated
# notes: fusion protein of NusA and Nox2 residues 357–570, contains the CGC triad
# B3: p67^phox(1–212): wild-type recombinant p67phox residues 1–212 (protein)
# chain: MSLVEAISLWNEGVLAADKKDWKGALDAFSAVQDPHSRICFNIGCMYTILKNMTEAEKAFTRSINRDKHLAVAYFQRGMLYYQTEKYDLAIKDLKEALIQLRGNQLIDYKILGLQFKLFACEVLYNIAFMYAKKEEWKKAEEQLALATSMKSEPRHSKIDKAMECVWKQKLYEPVVIPVGKLFRPNERQVAQLAKKDYLGKATVVASVVDQD
# modifications: left off: 6His, N-terminal, kept
# B4: Mutant p67^phox: recombinant p67phox(1–212) in which cysteines 40, 45, 121, and 165 were mutated to serine (protein)
# chain: B3 chain with C40S, C45S, C121S, C165S
# modifications: left off: 6His, N-terminal, kept
# notes: recombinant p67phox(1–212) in which cysteines 40, 45, 121, and 165 were mutated to serine
# Legend:
# NADPH oxidase = tested on: NADPH oxidase; set-up: method as in 8 sources, one per row (each row's own in cited_ref): ref Shpungin et al., [1989] ||| ref Bellavite et al., [1983]; Gabig and Lefker, [1984] ||| ref Pick et al., [1987] ||| ref Le Cabec and Maridonneau-Parini, [1995] ||| ref Nishida et al., [2005] ||| ...; conditions: acts on a membrane component; ref Shpungin et al., [1989]; cited from earlier work
# p67^phox(1–526) [1] = test: Effect of thiol reagents on binding of p67phox(1–526) to Nox2 peptide 24; conditions: 1 h room temperature
# [2] = tested on: NADPH oxidase in intact phagocytes / neutrophils; set-up: method as in 3 sources, one per row (each row's own in cited_ref): ref Cohen and Chovaniec, [1978]; Yamashita et al., [1984] ||| ref Le Cabec and Maridonneau-Parini, [1995] ||| ref Tsunawaki et al., [2004]; conditions: added before activation; ref Cohen and Chovaniec, [1978]; Yamashita et al., [1984]; cited from earlier work
# [3] = molecular target: NusA-Nox2(357–570) (human) (UniProt P04839); test: SEC; FPLC gel filtration on HiLoad 16/60 Superdex 200 prep grade; separated a polymeric fraction from a homodimer fraction
# PDI = conditions: disulfide form; ref Kersteen and Raines, [2003]; Wang et al., [2011]; cited from earlier work
# Text: Based on the resemblance of the CXC motif with the CXXC motif characteristic of the catalytic motifs of PDI and thioredoxin, we synthesized analogs of Nox2 peptide 24 ([…]) in which the CGC sequen ...
# p67^phox(1–526) [4] = molecular target: T1, p67^phox(1–526) (UniProt P19878 1-526); test: ELISA; peptide—protein binding of p67^phox to Nox2 peptide 28, told in the results without a figure (the introduction gives manuscripts in preparation); conditions: both partners purified
# T1 construct: construct as in Mizrahi et al., 2010; also called full-length p67^phox; 6His-p67^phox; source: E. coli, purified (Nickel Sepharose); not shown: 6His, N-terminal, kept
# T1 sequence (looked up): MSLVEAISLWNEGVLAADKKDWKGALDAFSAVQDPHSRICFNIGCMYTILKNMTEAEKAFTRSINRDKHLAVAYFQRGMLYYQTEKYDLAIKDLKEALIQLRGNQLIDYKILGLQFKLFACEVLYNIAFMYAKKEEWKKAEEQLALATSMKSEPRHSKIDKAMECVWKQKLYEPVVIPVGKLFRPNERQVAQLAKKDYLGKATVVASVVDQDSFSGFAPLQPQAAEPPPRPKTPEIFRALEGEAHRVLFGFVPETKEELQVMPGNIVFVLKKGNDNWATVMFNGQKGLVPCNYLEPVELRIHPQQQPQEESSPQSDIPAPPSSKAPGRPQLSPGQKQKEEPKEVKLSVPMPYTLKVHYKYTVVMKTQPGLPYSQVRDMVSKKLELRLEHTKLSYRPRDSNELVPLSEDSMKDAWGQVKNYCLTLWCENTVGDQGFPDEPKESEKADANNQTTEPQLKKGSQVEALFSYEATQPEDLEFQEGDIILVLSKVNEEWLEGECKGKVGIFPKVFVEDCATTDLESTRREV
# p67^phox(1–212) [5] = molecular target: T2, p67^phox(1–212) (UniProt P19878 1-212); test: as above; conditions: both partners purified
# T2 construct: contains four cysteines (40, 45, 121, 165); source: E. coli, purified (Nickel Sepharose); not shown: 6His, N-terminal, kept
# T2 sequence (looked up): B3 chain
# p67^phox(1–526) [6] = test: Protein–protein binding assay, p67phox(1–526); conditions: homodimers, 0.5 μM, p67phox coated at 0.5 μM; one characteristic experiment (Figure 5A)
# oxidized insulin = test: Insulin reduction (turbidimetric) assay; assay type: biochemical; conditions: up to 5 μM
# p67^phox(1–212) [7] = test: Protein–protein binding assay, p67phox(1–212)
# [8] = PDI reductase activity, DE-GSSG reduction; assay type: biochemical; conditions: for Vmax, PDI reductase activity (Figure 6B): DTT only 5,124
# [9] = molecular target: T3, NADPH oxidase (macrophage membrane liposomes, cytochrome b558) (Cavia porcellus, UniProt H0UXC6); test: Cell-free NADPH oxidase activation, amphiphile- and p47phox-dependent; assay type: biochemical, guinea pig; conditions: for EC50: equal concentrations of p67phox, p47phox and Rac1 Q61L 10–200 nM, LiDS 120 μM, 5 nM cytochrome b558 heme, 90 s (Figure 13A), read-out: EC50, support of NADPH oxidase activation
# [10] = tested on: Nox2 peptide 24 (357–371); test: Peptide–protein binding assay, wild type and Cys to Ser mutant p67phox(1–212) to Nox2 peptide 24; conditions: 3 experiments (Figure 12); for binding to Nox2 peptide 24 in the disulfide form: 24N CGC S-S; for binding to Nox2 peptide 24 in the dithiol (reduced) form: 24N CGC
# [11] = Binding of thiol reagent mBBr to p67phox(1–212); conditions: results not shown
# [12] = molecular target: T3, NADPH oxidase (macrophage membrane liposomes, cytochrome b558); test: Cell-free NADPH oxidase activation, amphiphile- and p47phox-independent; assay type: biochemical, guinea pig; conditions: equal concentrations of p67phox and prenylated Rac1 Q61L 50–600 nM, 5 nM cytochrome b558 heme, 5 min (Figure 13B), read-out: EC50, support of NADPH oxidase activation
molecule,measurement,setting,value
"CCN1C(=O)C=CC1=O [NEM, N-ethylmaleimide]",inhibition of oxidase activation in vitro,NADPH oxidase,inhibited
same,effect of pretreatment of p67phox on low affinity binding to native form of peptide 24,"p67^phox(1–526) [1]; NEM 0.1 mM or diamide 5 mM, three experiments (Figure 2A,B)",suppressed
same,effect of NEM pretreatment of p67phox on binding to peptide 24 in the disulfide form,"p67^phox(1–526) [1]; p67^phox(1–526) 1.5 μM, NEM 0.1 mM, three experiments (Figure 2A)",totally abolished
same,inhibition of oxidase activation in intact phagocytes,[2],inhibited
NusA-Nox2(357–570) (from UniProt P04839 357-570) (domain or fragment),stoichiometry N,[3],2
RKCGC (disulfide) [small peptide RKCGC],mimicry of the actions of PDI protein,PDI,can mimic the actions of PDI protein
B1,binding result,p67^phox(1–526) [4],binds
same,binding result,p67^phox(1–212) [5],binds
B2,binding of NusA-Nox2 to p67phox(1–526),p67^phox(1–526) [6],significant binding
same,insulin reductase activity,oxidized insulin,no activity could be detected
same,binding of NusA-Nox2 to p67phox(1–212),"p67^phox(1–212) [7]; homodimers, 0.5 μM, p67phox coated at 0.5 μM, one characteristic experiment (Figure 5B)",significant binding
same,"Vmax, PDI reductase activity (Figure 7A)","[8]; 1 μM, DE-GSSG 0.8 μM, DTT 12.5 μM, pH 7.0, 24°C, mean ± SEM of 9 experiments","49,164 ± 2271"
same,"Vmax, PDI reductase activity (Figure 6B)","[8]; 1 μM, DE-GSSG 800 nM, DTT 12.5 μM, one characteristic experiment","41,130 milli relative fluorescence units per min"
same,PDI activity compared with DTT alone,[8]; 2 μM (Figure 6A),marked excess
same,"Vmax, PDI reductase activity (Figure 6B)","[8]; 2 μM, DE-GSSG 800 nM, DTT 12.5 μM, one characteristic experiment","62,074 milli relative fluorescence units per min"
same,"Vmax, PDI reductase activity in the absence of PAO (Figure 6D)","[8]; 2 μM, DE-GSSG 800 nM, DTT 12.5 μM, one characteristic experiment, DTT only 8,254","40,306 milli relative fluorescence units per min"
same,"Vmax, PDI reductase activity (Figure 6C)","[8]; 2 μM, DE-GSSG 800 nM, DTT 12.5 μM, one characteristic experiment, DTT only 26,248","127,476 milli relative fluorescence units per min"
same,"Vmax, PDI reductase activity (Figure 6B)","[8]; 3 μM, DE-GSSG 800 nM, DTT 12.5 μM, one characteristic experiment","73,736 milli relative fluorescence units per min"
same,"Vmax, PDI reductase activity (Figure 6B)","[8]; 4 μM, DE-GSSG 800 nM, DTT 12.5 μM, one characteristic experiment","86,162 milli relative fluorescence units per min"
same,dose dependency of reductase activity,[8]; 1–4 μM (Figure 6B),clear dose dependency
same,"Vmax, PDI reductase activity (Figure 6A)","[8]; NusA-Nox2(357–570) 2 μM, DE-GSSG 800 nM, DTT 12.5 μM, pH 7.0, 24°C, 30 min, DTT only 7,108 and 9,423","52,312 ± 1,380 milli relative fluorescence units per min"
B3,EC50,[9],57.2 nM
same,binding to Nox2 peptide 24 in the disulfide form,[10],much enhanced binding
same,binding to Nox2 peptide 24 in the dithiol (reduced) form,[10],moderate binding
same,binding of mBBr,[11],bound mBBr
same,binding of NusA-Nox2 to p67phox(1–212) relative to p67phox(1–526),"p67^phox(1–212) [7]; Figure 5A,B",exceeded
same,EC50,[12],224 nM
B4,increase in EC50 versus wild-type,[9],two-fold
same,EC50,[9],114 nM
same,binding to Nox2 peptide 24 in the disulfide form,[10]; listed as mutant protein,markedly reduced
same,binding to Nox2 peptide 24 in the dithiol (reduced) form,[10]; listed as mutant protein,lacked binding ability; also recorded: markedly reduced
same,binding of mBBr,[11],did not
same,EC50,[12],405 nM
